According to the domain aggregation screens of Martell et al. (2025):

Experiment: soluble fraction after stress (log2 fold change); higher = more stays soluble; pooled small domains, quantitative proteomics
Details: stress: 75 degC
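Note: 20 min heating vs room temperature control held 20 min.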

Sequence | soluble fraction (log2)
HMYLYADIYKKLEEKIKNMEVGEKLPSERAMVQEYGVSRNVLREALVLLSERGLIEIRPGKGSYVTNQQ | -1.17
HMYNKKAYVNTNSDFLNVRSEASTESSVVDKLARGTEVNIVGNIQNGFYPIVLNEKNAWVSSDWISFEKPT | 0.053
HMYNNDEIEKIQTMYNAIYQLNDIEKALIMLFLEDKSYKEIAEIMGISEGNARIKMMRTKDKLKNLISKN | -0.527
HMYNNGYVNSDRVNFRKGASTNSDIYKVLDKNTSVTILDYEGDWSKVKINDTVGYVYTKYITAG | -0.368
HMYNTDAMGVRIGELRRAKGLTQEAFAKTLGISAQAVSKWETGLGFPDISLLPMIAETLGTKIETLFGAE | -0.299
HMYPATGTVVTAGGHLNMRSEPDRSGAILARIPNGTALTLTGKNGDWYAATYAGRSGYVSAQYISLS | -0.421
HMYPDNSGDIQQLAQNIFRQENVSVDRDGLALISSRLGSDHAATRSEIEKLALLAGPGGTLTFETISEVLG | -0.145
HMYPEDMMSLMRRALRLINHLESNRKDRHNSRQLELTESKIRRLARYYKGRGLIETEWAYKRDQLRLLV | -0.532
HMYPIYDYISNMYLGKHLNAGMSLEEARGIMDEMLEKLLFDVPEEYHIDRDHFYEYLKKYYTERFSA | -1.73
HMYPQLIGFKVIDEDKGEVGVVKEVSESMHQILLTVMKGKKEILIPLAEEFITKVNRHKKELFMVLPDG | -0.192
HMYRLDVEISDEIKRDIDEETLSEIKGIIAEDPRPSYQNDETRIYRFTFAGREISFRVKDRTATVTEIL | -0.921
HMYRPLYQQVYDFLVKQIAAGEWGPGESLPSEQALAGRLNVSQGTVRKALDALAADSLIDRRQGKGTYVAE | -0.236
HMYRPQQEFTMRDLFQNNLNGSESASVRRDALGAELGIGYGNAKRFLERLNHYGVSREEFTAALEKLESE | -0.522
HMYRSGGYTGAGKDDEEAGVVHRNEFVNTADAVRNPHVKRFLDVFNVAQKDGTIRMLNTSQILERARLDA | 0.115
HMYRYGETPMVVVPDLIGRTVSDIYEEMNADFRLEKFGNGNTVISQAPKPGERVEQGSVIRVYLSGQDQ | 0.0556
HMYSDERLQTFMELLPFFVEELSNKHVTRYNVWQNYREAYPNGYGRSQFFFHLGQNLEAKKK | -1.34
HMYSIKEFSFEVTTPGQRLDLFLSEELIGQTRSSIQNLILKKYVTVNGQVSKASYKVKTGEFISVKIPV | -3.1
HMYSINKTEFGERIKSAREELKMTQTQLAQLLKTSQTTVAKYEHGEQIPRADVLATISKATGKSTDWLLFG | -0.268
HMYSKQRELIMEAVFKNRVHPTAEYVYKLLKKDHPELSLGTVYRNLNYWAENNMLKKINVPGGSDRFDGT | 0.0438
HMYSLGPKERSIVSFIANRPGSRSGQIAKSLQIPLPTIKRILNGLVENKVIARHGIGAGTNYVVEDQA | -0.711
HMYSMSAPMPGVILEIKVAPGDQVNKGDVVMVLEAMKMKNDLHAARTGTVESIDINSGEQVKYGQVLLRFV | -0.225
HMYSQIGYGSSGSDVRKLQEILNGKGYNLSVDGQFGAKTKSAVRDYQSKNGLSVDGIVGVNTWGKLT | -0.0992
HMYSYNKEEVGKRIKSIRQQKGLTQESFGELFGASKGNVATWEKGISLPNASRLREIADLVSITVEELLYG | -0.735
HMYTLGEESDGTVRLLELYDIIKNKNEKIFVVDELDRSLHPNLTFNFVKKYLSIENKSQLIVSTH | 0.0677
HMYVKKSSFVKKSLNNYEFKITDNTNDLLIFYKGMLPDLFREEQGIVVEGLIDKNNNIVASKV | 0.0603
HMYVSGVPAITSIERVSTPGRRVYAGYTTVPKVIGGMGVSILTTSRGVMTDAEARRQKVGGELLAKV | 0.234
HMYVTGSAIRRLREKRKLTQAQLAAALSVSDKTVSKWETARGLPDITLLEPLARALQVSVPELLSGEEV | -1.58
HMYVVLYPGMARDEAVQVMNELQSRGIDYYEKNGNIYVPKTDENSLRMELANLGYPKTTNNYD | -0.0096
HMYYHQIIGLDVVDENGNTLGKIKEILSPGANDVWVVKRKQKNDLLLPVIDDVIKDVDLAAGKVHVELLEG | -0.269
